The target of the test is F-actin (chicken) (UniProt P68139). The test can be described thus: co-sedimentation.

Consider “supervillin headpiece L38K point mutant (domain or fragment)”, for which the Kd (commonly the free concentration of one partner at which half of the binding sites on the other are occupied at equilibrium, for simple one-to-one binding) was found to be 88 µM.

The record behind these values is paper PMC2760644.
